These results are taken from US20170015742A1 (published 2017).

The target in assay [1] is T1, Recombinant human FcγRIIIa F158, 6xHis-tagged (human, UniProt P08637 17-208, limits assumed).
T1 construct: Captured through its 6xHis tag
Nature of the assay: Biacore SPR; His-tagged human FcγR captured on anti-6xHis antibody, DVD-Ig injected. As to the method: (§1) A CM5 chip (GE Healthcare, Pittsburgh, Pa.) with mouse anti-6×His antibodies (“6×His” disclosed as SEQ ID NO: 405) that were directly immobilized on the chip via amine coupling according to the GE Healthcare protocol to the density of 10000RU (all flow cells) was used for experiments. Human FcγRs were captured on flow cells 2, 3 and 4. Flow cell 1 was used as a reference surface. HBS-EP+ was used as the running buffer. […] The chip surfaces were regenerated with an injection of 10 mM glycine pH 1.5 at a flow rate of 100 μL/minute over all four flow cells after each cycle.
(In general: Surface plasmon resonance follows binding to a sensor surface in real time, without labels.)

Assay [2] deals with T2, Recombinant human FcγRIIb, 6xHis-tagged (human, UniProt P31994 46-217, limits assumed).
T2 construct: Captured through its 6xHis tag; also called huFcRIIb
T2 sequence: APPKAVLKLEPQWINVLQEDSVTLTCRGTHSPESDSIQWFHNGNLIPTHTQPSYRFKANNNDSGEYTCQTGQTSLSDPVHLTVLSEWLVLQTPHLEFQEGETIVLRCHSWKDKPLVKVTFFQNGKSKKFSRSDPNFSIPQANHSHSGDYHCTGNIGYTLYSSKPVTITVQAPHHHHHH
The description is as above. As to the method:
as §1

The target of assay [3] is T3, Recombinant human FcγRIIa R131, 6xHis-tagged (human, UniProt P12318 36-218, limits assumed).
T3 construct: Captured through its 6xHis tag
T3 sequence: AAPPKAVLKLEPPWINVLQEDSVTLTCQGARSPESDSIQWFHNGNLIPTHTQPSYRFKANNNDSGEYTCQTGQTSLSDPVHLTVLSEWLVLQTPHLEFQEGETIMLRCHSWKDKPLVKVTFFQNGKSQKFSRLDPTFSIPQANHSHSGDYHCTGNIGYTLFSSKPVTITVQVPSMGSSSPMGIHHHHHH
The assay is described as above. Here is the method: as §1

The target of assay [4] is T4, Recombinant human FcγRIIa H131, 6xHis-tagged (human, UniProt P12318 36-218, limits assumed).
T4 construct: Captured through its 6xHis tag
T4 sequence: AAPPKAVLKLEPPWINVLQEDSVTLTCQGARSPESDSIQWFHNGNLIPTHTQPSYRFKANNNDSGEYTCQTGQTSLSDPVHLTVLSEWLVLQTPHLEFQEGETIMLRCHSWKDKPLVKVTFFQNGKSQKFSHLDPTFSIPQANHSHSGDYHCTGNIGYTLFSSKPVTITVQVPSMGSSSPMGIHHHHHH
The description is as above. Here is the method: as §1

The target in assay [5] is T5, Recombinant human FcγRIIIa V158, 6xHis-tagged (human, UniProt P08637 17-208, limits assumed).
T5 construct: Captured through its 6xHis tag; also called huFcRIIIa 158V
As to the kind of experiment: Biacore SPR; His-tagged huFcγRIIIa 158V captured on anti-6xHis antibody, DVD-Ig injected; steady state fit. Here is the method:
as §1
The binding of DVD-Ig molecules to FcRn from various species and the binding of DVD-Ig molecules to various FcγRs were characterized by Biacore using the method described in Example 1.2.

Another assay addresses T6, Recombinant rat FcRn (rat, UniProt P13599 23-298, limits assumed).
T6 construct: FcRn is normally a heterodimer with beta-2-microglobulin
T6 sequence (looked up) 1: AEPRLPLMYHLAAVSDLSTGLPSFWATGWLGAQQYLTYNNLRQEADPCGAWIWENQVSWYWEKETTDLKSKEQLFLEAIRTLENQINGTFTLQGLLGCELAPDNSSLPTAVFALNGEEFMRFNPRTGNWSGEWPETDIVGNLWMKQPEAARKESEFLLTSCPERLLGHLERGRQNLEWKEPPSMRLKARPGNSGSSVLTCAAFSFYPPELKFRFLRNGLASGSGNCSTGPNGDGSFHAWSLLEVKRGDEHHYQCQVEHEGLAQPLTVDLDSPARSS
T6 sequence (looked up) 2: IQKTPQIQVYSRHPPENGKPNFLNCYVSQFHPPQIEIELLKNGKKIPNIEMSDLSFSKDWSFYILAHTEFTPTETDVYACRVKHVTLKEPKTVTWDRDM
As to the kind of experiment: Biacore SPR; DVD-Ig immobilised by amine coupling, recombinant FcRn injected; 1:1 binding fit. Here is the method:
Human, cynomolgus, mouse, rat and rabbit recombinant FcRns were injected over all the flow cells at a flow rate of 50 μL/minute for 1 minute at a concentrations range of from 2.7 to 6000 nM (three fold serial dilution), followed by a 2 minute dissociation time. The surfaces were regenerated with an injection of 10 mM HCl at 100 μL/minute for 2 seconds followed by an injection of HBS-EP+, pH 7.4, at a flow rate of 50 μL/minute for 30 seconds over all four flow cells. Samples were prepared and run in two running buffer systems, pH 6.0 MES-EP+, and pH […]. Recombinant human FcγRIIIa V158 and rat and mouse FcRn data were fitted to 1:1 kinetic model. Recombinant human FcγRIIa R131 and FcγRIIa H131, FcγRIIIa F158, and recombinant human, cynomolgus and rabbit FcRn binding data were fitted to a steady state affinity model. Biacore T200 Evaluation Software version 2.0 was used to fit all the data.

Another assay addresses Human VEGF-A 165 (human, UniProt P15692 207-395). As to the kind of experiment: cell-based or functional assay.

T1 sequence (P08637 other isoform, or with tags, fused parts or gaps limits assumed): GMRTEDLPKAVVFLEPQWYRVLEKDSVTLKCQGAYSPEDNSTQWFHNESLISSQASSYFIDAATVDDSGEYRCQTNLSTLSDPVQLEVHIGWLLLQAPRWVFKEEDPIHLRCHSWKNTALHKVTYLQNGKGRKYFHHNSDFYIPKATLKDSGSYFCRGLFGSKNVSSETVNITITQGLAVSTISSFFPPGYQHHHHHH
T5 sequence (P08637 other isoform, or with tags, fused parts or gaps limits assumed): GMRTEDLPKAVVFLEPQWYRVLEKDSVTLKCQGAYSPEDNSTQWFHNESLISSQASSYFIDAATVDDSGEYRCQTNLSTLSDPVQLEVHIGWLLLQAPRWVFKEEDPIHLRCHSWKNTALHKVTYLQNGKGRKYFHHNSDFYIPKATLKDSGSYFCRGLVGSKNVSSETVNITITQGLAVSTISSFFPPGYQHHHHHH
Sequence of Human VEGF-A 165 (P15692 other isoform, or with tags, fused parts or gaps): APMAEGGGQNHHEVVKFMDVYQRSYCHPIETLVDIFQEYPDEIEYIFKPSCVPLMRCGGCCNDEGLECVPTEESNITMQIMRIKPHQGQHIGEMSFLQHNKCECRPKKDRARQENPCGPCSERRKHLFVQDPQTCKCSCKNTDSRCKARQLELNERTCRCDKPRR

B1: 4G8.3-SL-9E8.4(g) (PR-1572105), anti-VEGF-A/anti-PDGF-BB DVD-Ig, hu IgG1/k L234A L235A H435A (bispecific antibody)
heavy: EVQLVQSGSELKKPGASVKVSCKASGYTFTNYGMYWVRQAPGQGLEWMGWINTETGKPTYADDFKGRFVFSLDTSVSTAYLQISSLKAEDTAVYYCARTNYYYRSYIFYFDYWGQGTMVTVSSASTKGPEVTLRESGPALVKPTQTLTLTCTFSGFSLSTYGMGVGWIRQPPGKALEWLANIWWDDDKYYNPSLKNRLTISKDTSKNQVVLTMTNMDPVDTATYYCARIESIGTTYSFDYWGQGTMVTVSSASTKGPSVFPLAPSSKSTSGGTAALGCLVKDYFPEPVTVSWNSGALTSGVHTFPAVLQSSGLYSLSSVVTVPSSSLGTQTYICNVNHKPSNTKVDKKVEPKSCDKTHTCPPCPAPEAAGGPSVFLFPPKPKDTLMISRTPEVTCVVVDVSHEDPEVKFNWYVDGVEVHNAKTKPREEQYNSTYRVVSVLTVLHQDWLNGKEYKCKVSNKALPAPIEKTISKAKGQPREPQVYTLPPSREEMTKNQVSLTCLVKGFYPSDIAVEWESNGQPENNYKTTPPVLDSDGSFFLYSKLTVDKSRWQQGNVFSCSVMHEALHNAYTQKSLSLSPGK
light: DTVLTQSPATLSLSPGERATLSCRASESVSTHMHWYQQKPGQAPRLLIYGASNLESGVPARFSGSGSGTDFTLTISSLEPEDFAVYFCQQSWNDPFTFGQGTKLEIKRTVAAPSVFIFPPEFVLTQSPGTLSLSPGERATLSCERSSGDIGDSYVSWYQQKPGQAPRLVIYADDQRPSGIPDRFSGSGSGTDFTLTISRLEPEDFAVYYCQSYDINIDIVFGGGTKVEIKRTVAAPSVFIFPPSDEQLKSGTASVVCLLNNFYPREAKVQWKVDNALQSGNSQESVTEQDSKDSTYSLSSTLTLSKADYEKHKVYACEVTHQGLSSPVTKSFNRGEC
notes: also called hu VEGF 4G8.3-SL-hu PDGF 9E8.4 (germline) [hu IgG1/k]; LALA H435A
For B1, the binding result is reported as “no binding (tested: DVD-Ig 31.25 to 4000 nM)” in assay [1]; “no binding (tested: DVD-Ig 31.25 to 4000 nM)” in assay [2]; “no binding (tested: DVD-Ig 31.25 to 4000 nM)” in assay [3]; “no binding (tested: DVD-Ig 31.25 to 4000 nM)” in assay [4]; “no binding (tested: FcRn 2.7 to 6000 nM)” with Recombinant rat FcRn. The Kd in assay [5] was determined as 6.2 µM.

B2: 4G8.3-SL-9E8.4 (PR-1569579), anti-VEGF-A/anti-PDGF-BB DVD-Ig, hu IgG1/k mut(234,235) H435A (bispecific antibody)
heavy: EVQLVQSGSELKKPGASVKVSCKASGYTFTNYGMYWVRQAPGQGLEWMGWINTETGKPTYADDFKGRFVFSLDTSVSTAYLQISSLKAEDTAVYYCARTNYYYRSYIFYFDYWGQGTMVTVSSASTKGPEVTLRESGPALVKPTQTLTLTCTFSGFSLSTYGMGVGWIRQPPGKALEWLANIWWDDDKYYNPSLKNRLTISKDTSKNQVVLTMTNMDPVDTATYYCARIESIGTTYSFDYWGQGTMVTVSSASTKGPSVFPLAPSSKSTSGGTAALGCLVKDYFPEPVTVSWNSGALTSGVHTFPAVLQSSGLYSLSSVVTVPSSSLGTQTYICNVNHKPSNTKVDKKVEPKSCDKTHTCPPCPAPEAAGGPSVFLFPPKPKDTLMISRTPEVTCVVVDVSHEDPEVKFNWYVDGVEVHNAKTKPREEQYNSTYRVVSVLTVLHQDWLNGKEYKCKVSNKALPAPIEKTISKAKGQPREPQVYTLPPSREEMTKNQVSLTCLVKGFYPSDIAVEWESNGQPENNYKTTPPVLDSDGSFFLYSKLTVDKSRWQQGNVFSCSVMHEALHNAYTQKSLSLSPGK
light: DTVLTQSPATLSLSPGERATLSCRASESVSTHMHWYQQKPGQAPRLLIYGASNLESGVPARFSGSGSGTDFTLTISSLEPEDFAVYFCQQSWNDPFTFGQGTKLEIKRTVAAPSVFIFPPEFVLTQSPGTLSLSPGERATLSCERSSGDIGDSYVSWYQQKPGQAPRLVIYADDQRPSGIPDRFSGSGSGTDFTLTISRLEPEDFAVYYCQSYDINIDIVFGGGTKVEIKGTVAAPSVFIFPPSDEQLKSGTASVVCLLNNFYPREAKVQWKVDNALQSGNSQESVTEQDSKDSTYSLSSTLTLSKADYEKHKVYACEVTHQGLSSPVTKSFNRGEC
notes: also called hVEGF 4G8.3-SL-hPDGF 9E8.4 [hu IgG1/k] mut(234, 235) H435A
Consider B2, for which the binding result in assay [1] is given as “no binding (tested: DVD-Ig 31.25 to 4000 nM)”; in assay [2], “no binding (tested: DVD-Ig 31.25 to 4000 nM)”; in assay [3] it was “no binding (tested: DVD-Ig 31.25 to 4000 nM)”; in assay [4], “no binding (tested: DVD-Ig 31.25 to 4000 nM)”; with Recombinant rat FcRn, “no binding (tested: FcRn 2.7 to 6000 nM)”. The Kd in assay [5] was determined as 12 µM.

B3: chBEW-9D2 (antibody, human IgG1, kappa, L234A L235A, V domains shown)
VH: QIQLVQSGPELKKPGESVKISCKASGYTFTNYGMYWVKLAPGQGLQYLGWINTETGKPTYADDFKGRFVFFLETSASTAYLQINNLRNEDMATYFCARPSDYYDGFWFAYWGQGTLVTVSS
VL: DTVLTQSPALTVSPGERVSISCRASEWVNSYMHWYQQNPGQQPKLLIYKASNLASGVPARFSGSGSGTDFTLTLDPVEADDTATYFCQQSWNDPLTFGSGTKLEIKR
Regarding B3, in the assay with Human VEGF-A 165, the “huVEGF-A165 Neutralization Potency in HMVEC-d cells” value stood at 0.00215 µM.

B4: 4G8.3-GS-9E8.4 (PR-1569574), anti-VEGF-A/anti-PDGF-BB DVD-Ig, hu IgG1/k mut(234,235) H435A (bispecific antibody)
heavy: EVQLVQSGSELKKPGASVKVSCKASGYTFTNYGMYWVRQAPGQGLEWMGWINTETGKPTYADDFKGRFVFSLDTSVSTAYLQISSLKAEDTAVYYCARTNYYYRSYIFYFDYWGQGTMVTVSSGGGGSGGGGSEVTLRESGPALVKPTQTLTLTCTFSGFSLSTYGMGVGWIRQPPGKALEWLANIWWDDDKYYNPSLKNRLTISKDTSKNQVVLTMTNMDPVDTATYYCARIESIGTTYSFDYWGQGTMVTVSSASTKGPSVFPLAPSSKSTSGGTAALGCLVKDYFPEPVTVSWNSGALTSGVHTFPAVLQSSGLYSLSSVVTVPSSSLGTQTYICNVNHKPSNTKVDKKVEPKSCDKTHTCPPCPAPEAAGGPSVFLFPPKPKDTLMISRTPEVTCVVVDVSHEDPEVKFNWYVDGVEVHNAKTKPREEQYNSTYRVVSVLTVLHQDWLNGKEYKCKVSNKALPAPIEKTISKAKGQPREPQVYTLPPSREEMTKNQVSLTCLVKGFYPSDIAVEWESNGQPENNYKTTPPVLDSDGSFFLYSKLTVDKSRWQQGNVFSCSVMHEALHNAYTQKSLSLSPGK
light: DTVLTQSPATLSLSPGERATLSCRASESVSTHMHWYQQKPGQAPRLLIYGASNLESGVPARFSGSGSGTDFTLTISSLEPEDFAVYFCQQSWNDPFTFGQGTKLEIKRGGSGGGGSGEFVLTQSPGTLSLSPGERATLSCERSSGDIGDSYVSWYQQKPGQAPRLVIYADDQRPSGIPDRFSGSGSGTDFTLTISRLEPEDFAVYYCQSYDINIDIVFGGGTKVEIKGTVAAPSVFIFPPSDEQLKSGTASVVCLLNNFYPREAKVQWKVDNALQSGNSQESVTEQDSKDSTYSLSSTLTLSKADYEKHKVYACEVTHQGLSSPVTKSFNRGEC
notes: also called hVEGF 4G8.3-GS-hPDGF 9E8.4 [hu IgG1/k] mut(234, 235) H435A
Consider B4, for which the binding result in assay [1] is reported as “no binding (tested: DVD-Ig 31.25 to 4000 nM)”; in assay [2], “no binding (tested: DVD-Ig 31.25 to 4000 nM)”; in assay [3], “no binding (tested: DVD-Ig 31.25 to 4000 nM)”; in assay [4] it was “no binding (tested: DVD-Ig 31.25 to 4000 nM)”; with Recombinant rat FcRn, “no binding (tested: FcRn 2.7 to 6000 nM)”. For the same molecule, in assay [5], the Kd was determined as 16 µM.

A word on the Kd: it is the constant that tells how readily two partners part at equilibrium.
